Literature values in patent US8420067B2, “Targeted polylysine dendrimer therapeutic agent” (Starpharma Pty Ltd, priority 2006, dated 2013).
Like-named read-outs stand apart in the source and are kept apart here.

| Substance | stability of the conjugate in acidic conditions (acidic conditions (pH 4-6)) | stability of the conjugate in acidic conditions (pH 4) | stability of the conjugate in acidic conditions (pH 5) |
| --- | --- | --- | --- |
| α-methoxy-ω-{N-2-(3-hydroxypropyl-cholesterylcarbamate)-2-methyl-[1,3]dioxan-5-yl-amido}-polyethyleneglycol110 | not stable |  |  |
| α-methoxy-ω-{N-(2-methyl-s-octadecyloxy-[1,3]dioxan-5-yl)-amido}-polyethyleneglycol110 | not stable |  |  |
| α-methoxy-ω-{N-(2-octadecyloxy-[1,3]dioxolan-4-yl)methylamido}-polyethyleneglycol110 |  | good stability | good stability |
| α-methoxy-ω-{N-(2-cholesteryloxy-[1,3]dioxolan-4-yl)methylamido}-polyethyleneglycol110 |  | moderately less stable | very stable |
